Source: the DeepSol protein solubility set

Assay: soluble on expression in E. coli; label from the status in PepcDB or PDB records

| Sequence | soluble on expression in E. coli |
| --- | --- |
| MASGILVNVKEEVTCPICLELLTQPLSLDCGHSFCQACLTANHKKSMLDKGESSCPVCRISYQPENIRPNRHVANIVEKLREVKLSPEGQKVDHCARHGEKLLLFCQEDGKVICWLCERSQEHRGHHTFLTEEVAREYQVKLQAALEMLRQKQQEAEELEADIREEKASWKTQIQYDKTNVLADFEQLRDILDWEESNELQNLEKEEEDILKSLTNSETEMVQQTQSLRELISDLEHRLQGSVMELLQGVDGVIKRTENVTLKKPETFPKNQRRVFRAPDLKGMLEVFRELTDVRRYWGKEKSHYHKPPCGLSLLLSLSFRILCSLLGSCFKIYDSPSKTHITYPSL | soluble |
| MSAPNPKAFPLADAALTQQILDVVQQAANLRQLKKGANEATKTLNRGISEFIIMAADCEPIEILLHLPLLCEDKNVPYVFVPSRVALGRACGVSRPVIAASITTNDASAIKTQIYAVKDKIETLLI | soluble |
| MVQIIFDSKTGNVQRFVNKTGFQQIRKVDEMDHVDTPFVLVTYTTNFGQVPASTQSFLEKYAHLLLGVAASGNKVWGDNFAKSADTISRQYQVPILHKFELSGTSKDVELFTQEVERVVTKSSAKMDPVK | soluble |
| MLVEDSGHHLPESADIENALDLLLKAQLERAFGPELAEHFWAARQPRTLDERLAFIRKCWIGVFKDSPLSTFGLERLEQLERLCRSKRRGRELSAAEHHQFAEELARLWEQVQRLLPRAAPETSYASSASAGGVHSGDAHTPATLSDAESAHAAPEAMRIEAPATSARSASGCMARVSSDVAAAATNVSLVVLDGENIAWAHGQNAVFSPKGIAIAVDFFRKRGYRCVVFLPDYRRKRADLPTVSASDALVFVPAGEYDDTFALGYAVGHDAILVTNDLLQDHLDQFYPDEGEAREALRKWLGSHRCSFTFVGDEFLPNPHFFLP | not soluble |
| MTIGFLGTGKISASMVDGLMRSVFDVPSIILSPRNAKRAEHLSRNYDKVIIAENNQALLDVCDCVFLCLPNQIAEEVLRSLRFRPEQLVVSVLAMAKAAEVEEWINHKVYRAVPLPFVAECKNLTPIYPDHPFLRSLFDALGGTLVLDAEEQFNLFMTAGSLMGVYFNFIETAHKWFITQGLKKQQSADFLAMMFGNLTDEMRKIMDQDCSTSLDFALLEKEFSTKGGTNELLSHCFSHQGGRSALTTALETTLQKINAPFTY | not soluble |
| MLHKEKPDYNRNQYGFYTLDQLVPDEHFLRQVEAVIDFDFIYDLVEDTYSSDNGRPSLDPVMLVKIPLIQCFYGIRSMRQTIKDIEVNTAYRWFLGLTLDDKVPHFTTYGKNYSRRFQEKGLIESIFTHIVGLCINTGLIDPTEIFIDGTHIKAAANNRKFINREVEKQAKFMSEQLEIEINRDREKHGKKPLGPAKELEPVAKKISTTDPESGWFHKGDHKEVFAYSAQVACDKYGWALAYSVEAGNIHDSQAFPALFAKLEPLKPQFIIADSGYNVPSIAKFLIDKEITPVLPYTRPRGKKDLLRPKELIYDEHFDCVICPEHQALTYRTTTREGYREYKSDPVICANCPLLSVCTTSKNYQKVVTRHIWKDYLAQPRNTTISAIRERKASPKWKIRLD | not soluble |
| MSLEFSDAELARASALQKRLVTLDSHLDTPANLERGDFDVMQGHAGNRLSQVDYPRMLEGALDGGFWAVYTGQGNRSAAAHLDDRDAGLQRLMKIHNLLAAQPQRFALATTPADAARIKAAGKRVVYISMENASPLVADPSLLRFYYAQGLRLMSTVHFLNNEFADSATDPKGAEWKGLSPAGKQLVQQALGIVIDQSHASDAVFDQLIALSPVPIVLSHSGARAVYNHPRNIDDARLKVLAAHGGVIQVNSYGGYLIDSGASPERKAAEKALADQYGGWEHLKMSDGTALSEALKALDARYPVKRATEEDFFAHLEHVLAVAGPAHVGIGMDWDGGGGVVGLEDVSDLPRITAWLLRKGYSEPQIAGIWGGNLLRVMEQAQAYAAGNRESGVGNREGHHHHHH | not soluble |
| MGSDKIHHHHHHMNLPTASRLQFTPDLNICRILNGMWQVSGAHGRINPQAAIETMFKYLDAGFTTWDLADHYGPAEDFIGEFRCQLIDTRGKDALSKVQAFTKWVPRPGKMTKKLVEENIDISLRRMNVESLDLMQFHWWEYQDKNYLDALKYMAELQTEGKIKHLGLTNFDTENLKLITEAGIKIVSNQVQFSLIDRRPEVNMAEFCQQHDIKLFTYGTLCGSLLSENYLGKPEPRGSDLSTASLKKYKNMIDAWGGWQLFQELLAILKEIANKHKVSISNVAVRYILDQPTVGGVIVGARLGVSEHIEDNAKVFSFSLDADDRDRISAVSRQSRDLYQLIGDCGDEYRR | not soluble |
| SSGLSFSEMEGCRNLLGLLDNDEIMALCDTVTNRLVQPQDRQDAVHAILAYSQSAEELLRRRKVHREVIFKYLATQGIVIPPATEKHNLIQHAKDYWQKQPQLKLKETPEPVTKTEDIHLFQQQVKEDKKAEKVDFRRLGEEFCHWFFGLLNSQNPFLGPPQDEWGPQHFWHDVKLRFYYNTSEQNVMDYHGAEIVSLRLLSLVKEEFLFLSPNLDSHGLKCASSPHGLVMVGVAGTVHRGNTCLGIFEQIFGLIRCPFVENTWKIKFINLKIMGESSLAPGTLPKPSVKFEQSDLEAFYNVITVCGTNEVRHNVKQASDSGTGDQV | soluble |
| MSLRGGAQALECYSCVQKADDGCSPNKMKTVKCAPGVDVCTEAVGAVETIHGQFSMAVRGCGSGLPGKNDRGLDLHGLLAFIQLQQCAQDRCNAKLNLTSRALDPAGNESAYPPNGVECYSCVGLSREACQGTSPPVVSCYNASDHVYKGCFDGNVTLTAANVTVSLPVRGCVQDEFCTRDGVTGPGFTMSGSCCQGSRCNSDLRNKTYFSPREGHHHHHH | not soluble |
| SATSVLCCLRCCRDGGTGHIPLKEMPAVQLDTQHMGIWGIGVATQKVNLNQIPLGRDMHSLVMRNDGALYHNNEEKNRLPANSLPQEGDVVGITYDHVELNVYLNGKNMHCPASGIRGTVYPVVYDDDSAILDCQFSEFYHTPPPGFEKILFEQQIF | soluble |
| MKTQIIGVLGLGIFGQTLATELSSFGQDVIALDNNSTTIDFLADQVTKAAVGDITDIDFLRSAGIDTCDTVIIATGEHLESSALALLHCKKLGITNIIAKATNNNYEEVLYGMGANLVITPERSTAKDLASNILRCNISRIFHLEDDVALIELKIPNEWAGKSLHTLNLRQTYNVNVIGFRNEENGKLNTHFDPMNRLPNEGTILVVSDNRTLEKFDYLGYLKLEHHHHHH | soluble |
| MGSDKIHHHHHHMIIEHARDMLKRERLFFDKIQAHIGEVNGTISIGCSSLIGQTLLPEVLSLYNSQFPNVEIQVQVGSTEQIKAHHRDYHVMITRGNKVMNLSNTHLFNDEHYFIYPKDRKEDVTKLPFIEFQADPIYINQIKQWYNDHLGHDYHATITVDQVATCKEMLLSGVGVTILPKIMMKNIDKNMFEFEKVTIDKKPLIRSTYMSYDASMLQLPQVDAFVNLMLNFIR | not soluble |
| PDLSTWNLTIPQGRPAITISTSQLQRDYRSDYFQRTADGIRFWVPVNGSHTRNSEFPRSELRETLSSGRPYNWRYARADNWLEATLRIEAVPSTRRMIIGQIHSDGSNSGQAAPLVKLLYQLRLDQGRVQALVRERPDDGGTRAYTLMDGIPLGQPFSYRIGVSRSGLLSVSVNGSALEQQLDPQWAYQGLYFKAGLYLQDNRGPSSEGGRATFSELRVSHQ | soluble |
| MGSDKIHHHHHHMPQGKANPFNINTSVKNGTVAKVGSISPTSFLNSVDPNATEVDVGGEPFNQKEFLELALNDDFLKGLLLDEEGNIKPEVAGEATIQGLEQWHQNDAGLEVDDTDTLGLMFNYYLNDNVSLQFIGGIPPKVDIKGQGEILAPLSGVALSPNELVKILFPNGITLGQAVPITNLGNKPKAASVRAWTPAIEAQYQFGKSGVNKFRPYLGVGLMYAHFNDIKLNDEIRSDLISAGHMIQNVLDGKAGAALDRKESSGNMVVKVDADDAIAPIFTAGFTYDFNDSWYTVASVSYAKLNNRTQIDVINQNTGARLIHGSTKVDIDPIITYLGVGYRF | not soluble |
| MRIEAHQVFNVSIQLCEFFNVDLSDRGYYQIRLRPRKTAEIGSVDISHDTEGDRDTGPKTSSNILLAHVYQGAAVSKTVEVTYQHEKFNLDDWFHISVQFNSTLNLCEPQKLEIEIELLYMDRYHPPQYESFVKITKRIVEIPLDPTRLVAAARSLYFDSTYLSAITMSVFSSLVMVATRQRKANASESASSTKSTKLRRVYNSSAHALLFATRSIQQFIVNNSRLINASVSVVVLDVQTEMKAALQQFDSSDHPTRCVETDVCEWSTKITLIYQQMLILFRKSKELNQQLLLIFDKQRRAVFREAFWINERPIDKCLIRTPVSVLEHYKSIIKVDYLRKLPRCTIFCEETDCPGEFCPIIFEDVFTRNSVGLLDLNNANRQVTIPNSASMPVVKAHEKHKSFREKLRNETRKLIHPRRKSLDCSQSLSRKLDGGVTSRSRTKTLKETTSTDGGGGLLLKNIPNSQENNFSPEFPGPSRDTATESPSCSSEPIASPSPSSEFGRCSAAGELFQDDGIPLISKESVTSEEIANALRTSVSADDVLSCRVTSSTDMKLTEEHPKDRMAEFELLREREAAKKMLRQQTNYEGHLYSEQSGRSTAGPVCTPIKSSLVIGDPVVRSKNKTHLVVFVHGLEGSQEDLVPFRCGLDQAIAAHYHCIQMEGRDFDEEPWAFEYLMSSANRSQTWADITTMAHNLLSEVREYVEEARNDIQRISFLAHSLGGVIVRSAVGLAPEVEMQWMIDRCYTLMTINSPHLGLAYVQKHIHWGVQFVKWWKKSRSMEQLSFRDSVDFASSFVYKTSLNNACGKFKNILLVGTPHDQLVPYMSSLLVPSKISSEDQSQFGEAYREMMTACLSSIQNSEKSENLVRYTTFHQLGSSNTQKITGRAAHVIALEDSVFIEKLFNISAVRYFV | not soluble |
| GPGSMSIHQTKVCSVNEPLSNPDDSALEYCVEAQSPVNRTTSTWEFRSKLFPHAFAAVLDTDLSESETTQRELAEWTRKRCRNYERQGDILRSQLGVLVSSGAANGKRSDADDGDDEAFLVGLGEWSLQESSSQYLNSAKKKKCHRQLRCKDSYESALLLERQWSERHAVSLKHSCMKGAHPTPAAQNFELGCAKDLCRDASSVEIHSITPAASVVAAEKTRSVTACEPPTEQERKKNRGVASEHEGTQNFAEHLVVQYFIPDGSEAESGKSSNDTRGGACGRGLYSMPLSVFRYHYPQLLLDFLLQHSVVMESS | not soluble |
| MGSDKIHHHHHHMQRARAEQRGRDLVIHLDRPLNQDHLETVSGGQGEFYVDFEVADPRKASVQQRRLFFALLHDIETYFVVPSEFLKSMFYTQYEFYTAGKSISLSDATESSVSDANTLLDLVIDFMFEWRVPFKKGYELLPKEEQYFIYQCCRHRVCIVCGEHADIHHVDVVGRTNRNKIDHSQRHVMALCRAHHSEIESIGSAKFAAKYHVPVTGIKLKIEDLQKLGIRGNYGGD | not soluble |
| SPSETLWEIAKAEVEKRGINGSEGDGAEIAEKFVFFIGSKNGGKTTIILRCLDRDEPPKPTLALEYTYGRRAKGHNTPKDIAHFWELGGGTSLLDLISIPITGDTLRTFSLVLVLDLSKPNDLWPTMENLLQATKSHVDKVIMKLGKTNAKAVSEMRQKIWNNMPKDHPQDHELIDPFPVPLVIIGSKYDVFQDFESEKRKVICKTLRFVAHYYGASLMFTSKSEALLLKIRGVINQLAFGIDKSKSICVDQNKPLFITAGLDSFGQIGSPPVPENDIGKLHAHSPMELWKKVYEKLFPPKSINTLKDIKDPARDPQYAENEVDEMRIQKDLELEQYKRSSSKSWKQIELDS | soluble |
